From patent US10729745B2, “Use of La1-like peptide isolated from maurus palmatus venom as an activator of sperm motility in mammals” (IMV Technologies, priority 2016, dated 2020)

How the values were obtained:
Type in all cases: cell-based
sperm [1] = assay: Toxicity on sperm (sperm vitality)
Procedure: Forty μL of sperm were mixed with 20 μL of eosin 1% diluted in NaCl 9/1000 and 20 μL of nigrosine 10% diluted in NaCl 9/1000. Sperm were then layered onto glass slide and dried. A minimum of 100 spermatozoa was analyzed for each assay.

human sperm = assay: Velocity test on human spermatozoa treated with the peptide (computer-assisted motility analysis, CASA)
Excerpt: (§1) Human sperm were obtained from patient consulting at the fertility department of Grenoble, following approval by the ethical committee and informed consent from the patients. All patients gave an informed consent for the conservation of the remnant sperm in the Germetheque biobank and their use in studies on human fertility in accordance with the Helsinki Declaration of 1975 on human experimentation. The Germetheque Scientific Committee approved the present study design. Ejaculate was liquefied at 37° C. for 30 min and sperm were washed twice in Sperm Preparation Medium (Origio, Målov, Denmark) at 500 g for 5 min. Concentration is then adjusted for CASA analysis. Sperm were also frozen with SpermFreeze (Fertipro NV, Beernem, Belgium) for further analysis as frozen sperm.
(§2) After 10 minutes incubation with the peptide according to SEQ ID NO. 1 (natural, or synthesized), the sperm suspension was immediately placed onto an analysis chamber (Leja Products B.V., Netherlands) of 100 μm depth for mouse sperm and 20 μm depth for human, NHP and bovine sperm, and kept at 37° C. for microscopic quantitative study of sperm movement. Sperm motility parameters were measured at 37° C. using a sperm analyzer (Hamilton Thorn Research, Beverley). The settings employed for analysis were as follows for human, NHP, bovine and mouse respectively: acquisition rate (60;60;60;60) Hz; number of frames: (30;20;30;45); minimum contrast: (80;80;80;50); minimum cell size: (3;4;5;5); low static-size gate: (0,85;0,79;0,1;0,3); high static-size gate: (4,24;2,52;3,4;1,95); low static-intensity gate: (0,39;0,62;0,3;0,5); high static-intensity gate: (1,4;1,4;1,7;1,3); minimum elongation gate: (0;2;8;0); maximum elongation gate: (85;50;97;87); magnification factor: (1,89;1,89;1,89;0,7). The motility parameters measured were curvilinear velocity (VCL) and amplitude of lateral head displacement (ALH). A minimum of 100 motile spermatozoa was analyzed for each assay. Motile sperm were defined by VAP>(1;1;1;1) and progressive sperm were defined by VAP>(25;25;50;30) and STR>(80;80;70;70).

[2] = system: mouse oocytes and capacitated sperm; assay: Fertilization study in mice (in vitro fertilization, 2-cell embryos scored)
Procedure: Eggs were collected from mature OF1 females, synchronized with 5 units of pregnant mare serum gonadotrophin (PMSG) and 5 units of human chorionic gonadotrophin (hCG). Sperm were capacitated for 55 minutes in M16 2% BSA (37° C., 5% CO2) and introduced into droplets containing oocytes. The active peptide was introduced into droplets at the same time. Oocytes were incubated with 1.5×10^5 to 5×10^5 capacitated sperm/ml (37° C., 5% CO2) in M16 medium and unbound sperm were washed away after 4 hours incubation. Twenty-four hours after fertilization, the different stages, i.e. unfertilized oocytes (including aborted embryos and corresponding to fragmented oocytes or oocytes blocked after the extrusion of the second polar body) and 2-cell embryos (as an indication of successful fertilization) were scored.

[3] = system: testicular sperm from macaca; assay: Motility activation in testicular sperm from Macaca (CASA); conditions: non-human primate testicular sperm, FIGS. 3 and 4
Procedure: FIG. 3: Measurement of motile cells and progressive cells after incubation of testicular sperm from macaca (non-human primate) with (7.8 Kda peptide) and without (Control) peptide SEQ ID NO. 1. Motile sperm and progressive sperm were characterized by VAP>1 μm/s and VAP>30 μm/s and STR>70%, respectively. STR=VSL/VAP. Statistical analyses were performed with SigmaPlot. t tests were used to compare the effects of La1-like peptide on sperm motility parameters. Data represent mean±SEM. Statistical tests with a 2-tailed P values 0.05 were considered significant. […]
After 10 minutes incubation with the peptide according to SEQ ID NO. 1 (natural, or synthesized), the sperm suspension was immediately placed onto an analysis chamber (Leja Products B.V., Netherlands) of 100 μm depth for mouse sperm and 20 μm depth for human, NHP and bovine sperm, and kept at 37° C. for microscopic quantitative study of sperm movement. Sperm motility parameters were measured at 37° C. using a sperm analyzer (Hamilton Thorn Research, Beverley). […] The motility parameters measured were curvilinear velocity (VCL) and amplitude of lateral head displacement (ALH). A minimum of 100 motile spermatozoa was analyzed for each assay. […]
Macaca testes were collected after euthanasia. […] 1, sperm motility was measured using the same conditions as those in Example 2.

sperm [4] = assay: Sperm motility tests by the applicants (comparison with papaverine, duration of effect, synthetic versus venom peptide)
human ejaculated sperm = assay: Motility of fresh and frozen human ejaculated sperm incubated with the peptide (Example 5, FIG. 5)
Procedure: FIG. 5: Measurement of % motile cells and progressive cells after incubation of fresh (left hand panel) and frozen (right hand panel) human ejaculated sperm with (7.8 kDa peptide) or without (Control) the peptide according to SEQ ID NO. 1. Motile sperm and progressive sperm were characterized by VAP>1 μm/s and VAP>30 μm/s and STR>70%, respectively. STR=VSL/VAP. Statistical analyses were performed with SigmaPlot. t tests were used to compare the effects of La1-like peptide on sperm motility parameters. Data represent mean±SEM. Statistical tests with a 2-tailed P values≤0.05 were considered significant.
as §1, §2

[5] = fresh human sperm samples, FIG. 5 left-hand panel
[6] = frozen human sperm samples, FIG. 5 right-hand panel

B1: La-1-like peptide (peptide)
chain: SGESCKAGKFTVLVGHQQNDKSTCTLYKCLNFKRKYALQISSCADVDLKSGCRQVPGAASANFPECCPMVICK
modifications: S Maurus palmatus
- toxicity on sperm (sperm [1]): no toxicity
- sperm motility after incubation (human sperm; human sperm, incubation with peptide, FIG. 2B): increase in sperm motility
- increase in lateral amplitude (ALH) (human sperm; initial lateral amplitude of less than 3.5 μm versus higher initial ALH values): greater increases
- increase in motility (VAP) (human sperm; sperm having an initial VAP of 60 μm/s): about 20%
- increase in path velocity (VAP) (human sperm; sperm having low initial path velocity (VAP)): up to 80%
- motility activation with respect to initial track speed (VCL) (human sperm; sperm with low initial track speed compared to higher initial track speeds, FIG. 2B upper left panel): higher motility activation
- toxicity [2]: not toxic
- increase of rate of fertilization compared to the control ([2]; number of embryos at the two cell stage): approximately 20%
- embryo development ([2]; two cell stage): does not prevent embryo development
- non-progressive velocity of sperm cells [3]: increase
- progressive velocity of sperm cells [3]: increase
- duration of effect on sperm motility (sperm [4]): long lasting effect
- comparison with papaverine (sperm [4]; compared to papaverine): superiority
- biological activity of synthesized peptide versus peptide isolated from venom (sperm [4]; peptide synthesized using Native Chemical Ligation Strategy): retains the biological activity
- non-progressive motility (human ejaculated sperm; [5]): increases
- progressive motility (human ejaculated sperm; [5]): increases
- non-progressive motility (human ejaculated sperm; [6]): increases
- progressive motility (human ejaculated sperm; [6]): increases
- effect on motility, frozen samples versus fresh samples (human ejaculated sperm; human sperm): greater for the frozen samples
